The values below are quoted from earlier work in article PMC9880166.

One may read the Kd as the free concentration of one partner at which half of the binding sites on the other are occupied at equilibrium, for simple one-to-one binding.

Read-outs that look alike come from different tables or passages of the source.

Data set [1] concerns the target prolactin receptor (Homo sapiens) (UniProt P16471).
Data set [2] shares this target. The data set is described as follows: SPR. (SPR reads the build-up and loss of mass on a sensor chip optically.)

Sequence of UniProt P16471 (P16471 25-234): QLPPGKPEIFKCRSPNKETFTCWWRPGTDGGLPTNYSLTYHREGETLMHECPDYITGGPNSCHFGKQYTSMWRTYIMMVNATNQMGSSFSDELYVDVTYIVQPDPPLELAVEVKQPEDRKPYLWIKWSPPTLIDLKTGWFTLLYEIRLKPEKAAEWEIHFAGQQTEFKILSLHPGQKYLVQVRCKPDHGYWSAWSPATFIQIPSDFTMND
Sequence of prolactin (P01236 29-227): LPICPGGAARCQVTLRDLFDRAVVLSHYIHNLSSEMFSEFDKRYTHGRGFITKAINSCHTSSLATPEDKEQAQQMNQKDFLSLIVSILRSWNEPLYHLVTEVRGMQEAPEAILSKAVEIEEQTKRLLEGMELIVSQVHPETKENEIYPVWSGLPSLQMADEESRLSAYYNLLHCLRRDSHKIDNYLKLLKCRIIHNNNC

Take prolactin (from UniProt P01236): the figures for the Kd in data set [1] and in data set [2] were 29.9 nM and 23 nM, respectively.
